Measurements published in article PMC3670040, “Structure of Lipid Kinase p110β/p85β Elucidates an Unusual SH2-Domain-Mediated Inhibitory Mechanism” (Molecular Cell, 2011).

System: p110β
Assay: Mass spectrometry assay of PIP3 production in vitro, brain lipids
Type: biochemical, mouse
Conditions: 10 nM protein, 100 μM ATP, 1 mg/ml lipid, 60 min; Figure S3A
Protocol: Figure S3, Related to Figures 1 and 2. Lipid Kinase Assays for p110β/p85 Constructs
(A) Lipid kinase activity of the p110β/p85β-nic, p110β/p85β-ni and p110β/p85β-ic, p110β C-terminal truncation/p85β-nic (ΔCter) and kinase dead (D913N) constructs as determined by mass spectroscopy. Error bars in panel A and other panels indicate SEM of four replicates.
(1 picture or pasted object on this page, not shown here)
Vesicles were "brain lipids" as in Figure S2. The protein concentration was 10 nM with 100 μM ATP and 1 mg/ml lipid. Reactions were carried out for 60 min. The bars show the integrated areas for the stearoyl-arachidonyl PtdIns(3,4,5)P3 peak.
(B) ATPase activity (no lipid substrate) of the wild-type and kinase dead p110β/p85β-nic construct in the absence and presence of 10 μM PDGF bis-phosphopeptide. Protein concentration was 75 nM with 100 μM ATP. Shaded bars represent activity for reactions with 5 μM added PI3K inhibitor GDC0941.
(C) Lipid kinase activity of a p110β/p85-icSH2 complex in which p110β Kα7/Kα8 elbow (966-KTGN) was replaced by the elbow of p110α (968-AQECTK). […]
The PIP3 lipids produced in PI3K in vitro assays as described above were also measured by a mass-spectrometry based assay (Clark et al.). […]

B1: p110β-ΔCter/nic: truncation mutant lacking 17 residues from the p110β C terminus; human ΔCter (1-1053) used in cells (protein, UniProt P42338 1-1053, looked up, fragment)
chain: MCFSFIMPPAMADILDIWAVDSQIASDGSIPVDFLLPTGIYIQLEVPREATISYIKQMLWKQVHNYPMFNLLMDIDSYMFACVNQTAVYEELEDETRRLCDVRPFLPVLKLVTRSCDPGEKLDSKIGVLIGKGLHEFDSLKDPEVNEFRRKMRKFSEEKILSLVGLSWMDWLKQTYPPEHEPSIPENLEDKLYGGKLIVAVHFENCQDVFSFQVSPNMNPIKVNELAIQKRLTIHGKEDEVSPYDYVLQVSGRVEYVFGDHPLIQFQYIRNCVMNRALPHFILVECCKIKKMYEQEMIAIEAAINRNSSNLPLPLPPKKTRIISHVWENNNPFQIVLVKGNKLNTEETVKVHVRAGLFHGTELLCKTIVSSEVSGKNDHIWNEPLEFDINICDLPRMARLCFAVYAVLDKVKTKKSTKTINPSKYQTIRKAGKVHYPVAWVNTMVFDFKGQLRTGDIILHSWSSFPDELEEMLNPMGTVQTNPYTENATALHVKFPENKKQPYYYPPFDKIIEKAAEIASSDSANVSSRGGKKFLPVLKEILDRDPLSQLCENEMDLIWTLRQDCREIFPQSLPKLLLSIKWNKLEDVAQLQALLQIWPKLPPREALELLDFNYPDQYVREYAVGCLRQMSDEELSQYLLQLVQVLKYEPFLDCALSRFLLERALGNRRIGQFLFWHLRSEVHIPAVSVQFGVILEAYCRGSVGHMKVLSKQVEALNKLKTLNSLIKLNAVKLNRAKGKEAMHTCLKQSAYREALSDLQSPLNPCVILSELYVEKCKYMDSKMKPLWLVYNNKVFGEDSVGVIFKNGDDLRQDMLTLQMLRLMDLLWKEAGLDLRMLPYGCLATGDRSGLIEVVSTSETIADIQLNSSNVAAAAAFNKDALLNWLKEYNSGDDLDRAIEEFTLSCAGYCVASYVLGIGDRHSDNIMVKKTGQLFHIDFGHILGNFKSKFGIKRERVPFILTYDFIHVIQQGKTGNTEKFGRFRQCCEDAYLILRRHGNLFITLFALMLTAGLPELTSVKDIQYLKDSLALGKSEEEALKQFKQKFDEALRESW
B1 was tested, and the “activity with brain lipids” value was “no measurable activity”.
